# According to paper PMC8211105:
# Tests used:
# [1] = target: MxiN with an N-terminal His6-tag, purified (S. flexneri) (UniProt Q6XVX6); assay: BLI; His6-MxiN immobilised on Ni-NTA biosensor tips; untagged Spa33 at 400, 200, 100, 50, 25 and 12.5 µg/mL; PBS with 10% glycerol, 0.01% BSA, 0.002% Tween 20; 25°C; Octet RED96; 1:1 Langmuir model; KD from the equilibrium response (Req)
# [2] = target: Spa33^C, purified recombinant (S. flexneri); assay: SEC; Spa33^C alone expressed in E. coli and purified by IMAC and Superdex 200 (20 mM Tris, 200 mM NaCl, pH 7.5); apparent homodimer
Substance,Kd [1] [nM],stoichiometry N [2]
"Wild-type Spa33 heterotrimer (one Spa33^FL with two Spa33^C), purified, untagged (from UniProt P0A1K9 1-293) (complex)",550,–
"Spa33^C, purified recombinant (domain or fragment)",–,2
